# Experimental data taken from US7612188.
# Target: tissue factor (Innovin, Dade) (UniProt P13726)
# UniProt P13726, sequence (P13726 33-295): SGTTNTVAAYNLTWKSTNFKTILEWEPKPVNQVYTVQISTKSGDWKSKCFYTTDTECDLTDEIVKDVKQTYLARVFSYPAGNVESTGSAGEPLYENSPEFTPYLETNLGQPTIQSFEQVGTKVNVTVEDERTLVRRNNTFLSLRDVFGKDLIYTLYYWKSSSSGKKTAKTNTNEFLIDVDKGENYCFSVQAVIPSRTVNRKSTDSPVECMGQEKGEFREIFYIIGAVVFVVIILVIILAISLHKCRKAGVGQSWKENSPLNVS
Substance,"competition clotting assay with active site modified VIIa (0-3.2 nM), compared with the Q11E33 mutant","competition clotting assay with FFR-VIIa (0 to 3.5 nM) and Innovin, compared with VIIa-Q11E33"
factor VII with leucine for phenylalanine at position 5 and the Q11E33 mutations,had much lower activity than the Q11E33 mutant,–
Human factor VIIa-T9Q11E33,–,Human factor VIIa-T9Q11E33 exhibited a severe loss of competitive binding affinity
